Laboratory results published in patent US9540428B2, “Extracellular matrix heparin-binding domains” (EPFL-TTO, priority 2012, dated 2017).

T1: VEGF-B (Homo sapiens, UniProt P49765)
T1 sequence (P49765 22-207): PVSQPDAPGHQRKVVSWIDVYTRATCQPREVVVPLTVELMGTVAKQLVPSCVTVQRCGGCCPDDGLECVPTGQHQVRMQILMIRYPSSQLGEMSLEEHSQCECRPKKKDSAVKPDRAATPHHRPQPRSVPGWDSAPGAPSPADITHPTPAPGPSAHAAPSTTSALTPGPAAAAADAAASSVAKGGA

T2: TGF-β2 (Homo sapiens, UniProt P61812)
T2 sequence (P61812 303-414 limits assumed): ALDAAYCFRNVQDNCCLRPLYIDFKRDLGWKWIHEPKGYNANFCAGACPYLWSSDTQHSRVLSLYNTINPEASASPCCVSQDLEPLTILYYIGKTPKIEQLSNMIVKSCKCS

T3: VEGF-A165 (Homo sapiens, UniProt P15692)
T3 sequence (P15692 1-191 isoform P15692-4): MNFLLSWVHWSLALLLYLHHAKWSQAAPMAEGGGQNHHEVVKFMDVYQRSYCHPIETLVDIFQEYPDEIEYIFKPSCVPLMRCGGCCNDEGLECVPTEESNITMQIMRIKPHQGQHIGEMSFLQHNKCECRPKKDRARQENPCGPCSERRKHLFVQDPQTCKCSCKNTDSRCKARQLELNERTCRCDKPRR

T4: PLGF-2 (Homo sapiens, UniProt P49763)
T4 sequence (P49763 19-170 isoform P49763-3 limits assumed): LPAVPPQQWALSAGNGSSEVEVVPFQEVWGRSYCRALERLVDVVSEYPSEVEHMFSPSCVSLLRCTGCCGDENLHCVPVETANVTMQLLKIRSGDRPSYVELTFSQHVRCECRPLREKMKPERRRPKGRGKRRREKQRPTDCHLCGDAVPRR

T5: BDNF (Homo sapiens, UniProt P23560)
T5 sequence (P23560 129-247): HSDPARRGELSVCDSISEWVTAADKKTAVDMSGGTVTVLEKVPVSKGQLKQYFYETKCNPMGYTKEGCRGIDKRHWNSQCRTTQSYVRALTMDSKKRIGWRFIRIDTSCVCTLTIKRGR

T6: PLGF-1 (Homo sapiens, UniProt P49763)
T6 sequence (P49763 19-149 isoform P49763-2): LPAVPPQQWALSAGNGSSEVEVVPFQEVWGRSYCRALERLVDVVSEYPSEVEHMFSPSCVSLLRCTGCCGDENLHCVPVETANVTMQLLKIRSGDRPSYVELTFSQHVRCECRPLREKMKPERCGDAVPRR

T7: FGF-10 (Homo sapiens, UniProt O15520)
T7 sequence (O15520 38-208): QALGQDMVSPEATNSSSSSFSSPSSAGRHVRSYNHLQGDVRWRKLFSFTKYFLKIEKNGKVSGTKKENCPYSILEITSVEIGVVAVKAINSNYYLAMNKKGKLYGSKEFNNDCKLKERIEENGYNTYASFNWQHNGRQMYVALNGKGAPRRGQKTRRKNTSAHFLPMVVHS

T8: FGF-7 (Homo sapiens, UniProt P21781)
T8 sequence (P21781 32-194): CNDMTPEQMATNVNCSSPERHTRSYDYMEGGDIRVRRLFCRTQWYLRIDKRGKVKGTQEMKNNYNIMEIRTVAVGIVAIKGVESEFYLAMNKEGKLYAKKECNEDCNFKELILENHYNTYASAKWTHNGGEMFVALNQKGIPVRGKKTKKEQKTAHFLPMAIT

T9: NT-3 (Homo sapiens, UniProt P20783)
T9 sequence (P20783 139-257): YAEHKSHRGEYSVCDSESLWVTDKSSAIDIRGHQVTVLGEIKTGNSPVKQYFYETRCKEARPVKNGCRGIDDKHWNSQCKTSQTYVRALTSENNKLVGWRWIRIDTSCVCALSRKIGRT

T10: BMP-2 (Homo sapiens, UniProt P12643)
T10 sequence (P12643 283-396): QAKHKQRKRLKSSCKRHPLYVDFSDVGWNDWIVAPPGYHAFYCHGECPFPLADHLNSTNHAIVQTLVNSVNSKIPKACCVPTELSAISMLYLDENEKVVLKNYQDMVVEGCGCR

B1: Fg β15-66: heparin-binding domain of human fibrinogen β chain aa15-66 (SEQ ID NO:8); construct with TG substrate and His tag, SEQ ID NO:2 (protein)
chain: GSNQEQVSPLGHRPLDKKREEAPSLRPAPPPISGGGYRARPAKAAATQKKVERKAPDAGGCGHHHHHH
modifications: GS linker, transglutaminase substrate, the Fg beta15-66, with a Histidine tag
B2: TNC III1-5: recombinant tenascin C fibronectin type III repeats 1-5 (E622 to A1074) with transglutaminase substrate NQEQVSPL and 6×His tag, SEQ ID NO:1 (protein)
chain: METDTLLLWVLLLWVPGSTGDAAQPAIEGRNQEQVSPLGGSEVSPPKDLVVTEVTEETVNLAWDNEMRVTEYLVVYTPTHEGGLEMQFRVPGDQTSTIIQELEPGVEYFIRVFAILENKKSIPVSARVATYLPAPEGLKFKSIKETSVEVEWDPLDIAFETWEIIFRNMNKEDEGEITKSLRRPETSYRQTGLAPGQEYEISLHIVKNNTRGPGLKRVTTTRLDAPSQIEVKDVTDTTALITWFKPLAEIDGIELTYGIKDVPGDRTTIDLTEDENQYSIGNLKPDTEYEVSLISRRGDMSSNPAKETFTTGLDAPRNLRRVSQTDNSITLEWRNGKAAIDSYRIKYAPISGGDHAEVDVPKSQQATTKTTLTGLRPGTEYGIGVSAVKEDKESNPATINAATELDTPKDLQVSETAETSLTLLWKTPLAKFDRYRLNYSLPTGQWVGVQLPRNTTSYVLRGLEPGQEYNVLLTAEKGRHKSKPARVKASTEQAGGGSHHHHHH
modifications: Tenascin III signal sequence with polyhistidine tag

Columns and labels:
Conditions in all cases: 50 nM cytokine coated
[1] = target: PDGF-AB (Homo sapiens, UniProt P01127+P04085); assay: ELISA binding to coated PDGF-AB
Sequence of PDGF-AB (P01127 82-190 limits assumed, other chains not shown): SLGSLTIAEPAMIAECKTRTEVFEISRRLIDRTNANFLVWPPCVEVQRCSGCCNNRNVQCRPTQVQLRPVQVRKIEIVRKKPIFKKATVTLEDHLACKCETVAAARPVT
Experimental: (§1) ELISA plates were coated with cytokines or BSA and further incubated with TNC III1-5 to analyze binding of TNC III1-5 to a wide variety of cytokines. […] Results are depicted in FIG. 3. Method: 50 nM of cytokine was coated for (1 hr, 37° C.). After blocking with 2% BSA (1 hr, RT). 100 nM TNC III1-5 was applied in PBST (0.05% tween, 0.1% bovine serum albumin (BSA)) (1 hr, RT). TNC III1-5 was detected with horseradish peroxidase (HRP)-anti-HIS in PBST (1 hr, RT) and developed with 3,3′,5,5′-tetramethylbenzidine (TMB), a soluble colorimetric HRP […]. Addition of sulfuric acid stop solution changes the color to yellow, enabling accurate measurement of the intensity at 450 nm using a spectrophotometer or plate reader. […] Heparin (4 μM) was added to TNC III1-5 to test the effect of blocking the heparin binding site of TNC III1-5, which has been defined as domain TNC III5 (Weber, Zimmermann, et al., 1995).
(§2) ELISA plates were coated with cytokines or BSA and further incubated with Fg β15-66 to analyze binding of […] to a wide variety of cytokines. […] Results are depicted in FIG. 4. Method: The methods were analogous to those used in Example 3.

[2] = target: PDGF-BB (Homo sapiens, UniProt P01127); assay: ELISA binding to coated PDGF-BB
Sequence of PDGF-BB (P01127 82-190 limits assumed): as the sequence (P01127 82-190 limits assumed, other chains not shown) above
Experimental: as §1, §2

[3] = target: FGF-2 (Homo sapiens, UniProt P09038); assay: ELISA binding to coated FGF-2
Sequence of FGF-2 (P09038 143-288, species assumed): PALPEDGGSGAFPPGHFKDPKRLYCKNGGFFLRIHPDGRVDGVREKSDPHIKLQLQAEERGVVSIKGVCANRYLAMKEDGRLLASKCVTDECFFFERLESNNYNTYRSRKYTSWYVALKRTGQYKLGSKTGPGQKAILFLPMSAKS
Experimental: as §1, §2

[4] = target: IGF-BP5 (Homo sapiens, UniProt P24593); assay: ELISA binding to coated IGF-BP5
Sequence of IGF-BP5 (P24593 21-272, species assumed): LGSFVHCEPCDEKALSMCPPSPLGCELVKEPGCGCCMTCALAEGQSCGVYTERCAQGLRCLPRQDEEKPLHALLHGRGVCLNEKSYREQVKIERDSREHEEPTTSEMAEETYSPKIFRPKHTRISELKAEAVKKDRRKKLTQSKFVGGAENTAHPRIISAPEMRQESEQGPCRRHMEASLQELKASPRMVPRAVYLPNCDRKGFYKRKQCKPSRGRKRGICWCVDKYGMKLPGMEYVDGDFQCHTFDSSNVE
Experimental: as §1, §2

[5] = target: T1, VEGF-B; assay: ELISA binding to coated VEGF-B
Experimental: as §1, §2

[6] = target: IGF-BP3 (Homo sapiens, UniProt P17936); assay: ELISA binding to coated IGF-BP3
Sequence of IGF-BP3 (P17936 28-291, species assumed): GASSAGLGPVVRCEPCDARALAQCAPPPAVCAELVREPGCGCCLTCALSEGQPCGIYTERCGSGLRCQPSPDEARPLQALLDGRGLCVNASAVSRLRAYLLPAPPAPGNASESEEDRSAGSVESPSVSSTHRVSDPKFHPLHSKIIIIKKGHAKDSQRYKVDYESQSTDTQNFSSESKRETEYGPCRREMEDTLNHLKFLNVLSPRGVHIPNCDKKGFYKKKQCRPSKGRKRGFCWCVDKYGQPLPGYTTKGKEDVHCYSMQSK
Experimental: as §1, §2

[7] = target: T2, TGF-β2; assay: ELISA binding to coated TGF-β2
Experimental: as §1, §2

[8] = target: T3, VEGF-A165; assay: ELISA binding to coated VEGF-A165
Experimental: as §1, §2

[9] = target: T4, PLGF-2; assay: ELISA binding to coated PLGF-2
Experimental: as §1, §2

[10] = target: T5, BDNF; assay: ELISA binding to coated BDNF
Experimental: as §1, §2

[11] = target: T6, PLGF-1; assay: ELISA binding to coated PLGF-1
Experimental: as §1, §2

[12] = target: T7, FGF-10; assay: ELISA binding to coated FGF-10
Experimental: as §1, §2

[13] = target: T8, FGF-7; assay: ELISA binding to coated FGF-7
Experimental: as §1, §2

[14] = target: T9, NT-3; assay: ELISA binding to coated NT-3
Experimental: as §1, §2

[15] = target: TGF-β1 (Homo sapiens, UniProt P01137); assay: ELISA binding to coated TGF-β1
Sequence of TGF-β1 (P01137 279-390 limits assumed, species assumed): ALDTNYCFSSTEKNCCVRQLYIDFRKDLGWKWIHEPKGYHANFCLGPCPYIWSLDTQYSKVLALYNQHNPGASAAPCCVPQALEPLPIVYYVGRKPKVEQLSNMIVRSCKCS
Experimental: as §1, §2

[16] = target: T10, BMP-2; assay: ELISA binding to coated BMP-2
Experimental: as §1, §2

Row | Molecule | binding to PDGF-AB (ELISA, signal above BSA background) [1] | binding to PDGF-BB (ELISA, signal above BSA background) [2] | binding to FGF-2 (ELISA, signal above BSA background) [3] | binding to IGF-BP5 (ELISA, signal above BSA background) [4] | binding to VEGF-B (ELISA, signal above BSA background) [5] | binding to IGF-BP3 (ELISA, signal above BSA background) [6] | binding to TGF-β2 (ELISA, signal above BSA background) [7] | binding to VEGF-A165 (ELISA, signal above BSA background) [8] | binding to PLGF-2 (ELISA, signal above BSA background) [9] | binding to BDNF (ELISA, signal above BSA background) [10] | binding to PLGF-1 (ELISA, signal above BSA background) [11] | binding to FGF-10 (ELISA, signal above BSA background) [12] | binding to FGF-7 (ELISA, signal above BSA background) [13] | binding to NT-3 (ELISA, signal above BSA background) [14] | binding to TGF-β1 (ELISA, signal above BSA background) [15] | binding to BMP-2 (ELISA, signal above BSA background) [16]
1 | B1 | positive binding | positive binding | positive binding | positive binding | positive binding | positive binding | positive binding | positive binding | positive binding | positive binding | did not bind | positive binding | positive binding | positive binding | positive binding | positive binding
2 | B2 | positive binding | positive binding | positive binding | positive binding | positive binding | positive binding | positive binding | positive binding | positive binding | positive binding | positive binding | positive binding | positive binding | positive binding | positive binding | positive binding
